Here are results for three molecules from patent US6210929A, “Fusion protein comprising a furin derivative or a derivative of a furin analogue and a heterologous sequence” (Baxter Aktiengesellschaft, priority 1995, dated 2001).

The test system of one series is pro-rvWF. As to the kind of experiment: In vitro cleavage of pro-rvWF by r-furin or fusion protein, Western blot analysis. To be noted: for in vitro processing of pro-rvWF in mixed supernatants: CHO-rvWF/r-furin and CHO-rvWF supernatants 1:1, 37° C. The series is classed as biochemical, human. The procedure: CHO-rvWF, CHO-rvWF/r-furin, CHO-rvWF and CHO (at a ration of 1:1), as well as CHO-rvWF and CHO-rvWF/r-furin (at a ration of 1:1) were mixed accordingly and incubated at 37° C.
Aliquots of the reaction formulations were tested for processed vWF by means of Western blot analysis immediately before incubation and after mixing of the cell culture supernatants, respectively; further aliquots were taken at time intervals of 24 hours each and assayed.
For this, 20 ml of serum-free cell culture supernatant of CHO-rvWF cells, adjusted to 2 mM imidazole, were passed over the column. […] Samples of the cell culture supernatant which were not subjected to a protease treatment served as the controls.
The negative control, an unmanipulated CHO cell culture supernatant (without r-furinΔCys-spacer-10xHis) was processed in an analogous manner on the Ni^2+ -NTA matrix.
Aliquots of the reaction mixtures were taken at the beginning of the test as well as at various points of time and frozen.
The Fractogel EMD® tentacle gel was loaded with Ni^2+ ions according to the manufacturer's instructions and equilibrated with fresh serum-free cell culture medium. Subsequently, the column was loaded with serum-free CHO-r-furinΔCys-spacer-10xHis supernatant. Washing steps were effected by serum-free cell culture medium, containing increasing imidazol concentrations up to 40 mM. Subsequently, the pro-protein substrate was guided over the column as serum-free CHO supernatant.

Another series relates to Boc-Arg-Val-Arg-Arg-AMC. As to the kind of experiment: AMC peptide substrate test (fluorogenic substrate test) of furin or fusion protein activity. The class given is biochemical. To be noted: for Intensity of the fluorescent emission at 438 nm: supernatants of permanent CHO cell clones, 2 hours of incubation, 30° C. How it is done: By the action of furin, AMC (7-amino-4-methyl coumarin) is cleaved from the substrate. […] The fluorescent spectroscopic detection of the furin or fusion protein activity was effected at 30° C. in stirred quartz cells in a test volume of 2 ml. 1.7 ml of 100 mM HEPES buffer (pH 7.4, 1 mM CaCl2 and 1 mM 2-mercaptoethanol) were mixed with 0.1 ml of a substrate solution (final substrate concentration in the test: 0.1 mM) and 0.2 ml of the sample. The fluorescence was excited at a wave length of 380 nm. After 2 hours of incubation, the fluorescent emission was measured at 438 nm (Table 1).
The supernatants of various permanent CHO-r-furinΔTM-His cell clones and, as the controls, of CHO-rvWF/r-furin cells and CHO cells were subjected to the AMC peptide substrate test. The intensity of the fluorescent emission at 438 nm reflects the activity.
The activity of CHO-r-furinΔTM-His cells from cell culture supernatants before their binding to the column matrix, the individual washing fractions as well as the eluate were determined by means of AMC peptide substrate test.
The influence of imidazole on the furin activity was determined.
For this, 1 ml of Ni^2 +-NTA matrix (Quiagen), equilibrated in serum-free cell culture medium was loaded at 4° C. with 10 ml of imidazole-free CHO-r-furinΔCys-spacer-10xHis cell culture supernatant, and, as the negative control, with conditioned medium of non-manipulated CHO cells, respectively. Then the matrix was washed three times at room temperature with serum-free cell culture medium, and subsequently the fluorogenic substrate was contacted at 30° C. with immobilized r-furinΔCys-spacer-10xHis. As the positive control, CHO-r-furinΔCys-spacer-10xHis cell culture supernatant was tested for its ability to react fluorogenic substrate in solution.

Another series relates to pro-vWF. The experiment in a line: Co-expression of pro-vWF and r-furin in CHO cells, Western blot of cell culture supernatants. The series is classed as cell-based, human. The source says: The expression plasmid for rvWF, phAct-vWF (FIG. 1), was co-transfected with the selection marker plasmid pSV-rdhfr (FIG. 1) in dhfr-deficient CHO cells, the efficiently pro-rvWF-expressing clone CHO-rvWF was selected under selection conditions, and this clone was sub-cloned to stability (Fischer et al., 1994. Febs Lett. 351:345-349). For a further analysis and for rvWF expression and function studies, the cells were at first washed with PBS several times, and subsequently, unless indicated otherwise, incubated in selection medium without serum, with a regular 24 hour medium exchange.
Approximately 40% of the rvWF secreted into the cell supernatant of CHO-rvWF was unprocessed (FIG. 2 II A). To increase the efficiency of the propeptide cleavage, the r-furin expression vector pSV-r-furink in the following was co-transfected with the selection marker plasmid pUCSV-neo into the CHO-rvWF cell clone. Under selection conditions (500 μg G418/ml), clones were identified which express r-furin in addition to rvWF (CHO-rvWF/r-furin; FIGS. 2 I A, B).
The detection of rvWF in the cell culture supernatant was effected by means of Western blot analysis (FIGS. 2 I A and II A). For this, 10 μl of reduced cell culture supernatant were separated by means of SDS-PAGE (Lammli, Nature 227:680-685, 1970), and subsequently the proteins were transferred to nitrocellulose membranes by means of the BioRad Mini Trans-Blot System (BioRad Laboratories, Richmond, Calif., USA). The Protoblot-System from Promega (Madison, Wis., USA) was used to visualize rvWF secreted into the cell culture supernatant. Rabbit anti-vWF serum (Order No. A 082) from Dakopatts (Glostrup, Denmark) was used as the antibody for vWF binding.
The detection of r-furin in the cell culture supernatant was also effected by means of Western blot analysis (FIGS. 2 I B and II B). r-Furin was visualized by using the anti-h-furin murine monoclonal antibody MON 148 (van Duijnhoven et al., Hybridoma 11: 71-86, 1992) and, as the second antibody, anti-murine IgG alkaline phosphatase conjugated goat serum (Sigma A 4656).

The next series concerns rFX. As to the kind of experiment: FX activity by FX-Coatest-Kit (RVV activation, chromogenic substrate S-2337). The class given is biochemical, human.
A further series deals with single-chain rFX. As to the kind of experiment: In vitro cleavage of the propeptide and processing of single-chain rFX, Western blot analysis. The series is classed as biochemical, human. On the technique in general: Immunoblotting shows a protein as a band on a membrane.

Method for single-chain rFX: Aliquots each of the reactions were tested for processed rFX by means of Western blot analysis prior to incubation (t=0) and after various incubation periods (t=2, 4, 6 hours) (FIG. 10). The detection of rFX in the cell culture supernatants was effected by means of anti-human FX antiserum (FIG. 10A) and of a monoclonal antibody specific to the light chain of FX (FIG. 10B).

On to “CHO-rvWF/r-furin: supernatant or cells of CHO clone co-expressing rvWF and complete recombinant human furin (r-furin), used as source of r-furin”, for which the “in vitro processing of pro-rvWF in mixed supernatants” value in the series with pro-rvWF (48 h and 96 h) was “completely processed vWF”; in the series with pro-rvWF (after 24 hours) it was “only a slight portion of unprocessed pro-vWF”. In addition, the “Intensity of the fluorescent emission at 438 nm” value in the series on Boc-Arg-Val-Arg-Arg-AMC came out at 444. Besides, the “processing of pro-vWF in co-expressing cells” value in the series with pro-vWF (medium exchange every 8 hours, serum-free) was “significant amounts of pro-rvWF”; with pro-vWF (serum-free 24 hour cell culture supernatants), “only the completely processed rvWF”; with pro-vWF (serum-free 24 hour cell culture supernatants, listed as CHO rvWF/r-furin), “completely processed”.

B1: r-furinΔTM-His: furin with transmembrane and cytoplasmatic part (amino acids 708 to 794) deleted, six histidine residues appended after amino acid 707; SEQ.ID.NO. 9 (protein)
chain: MELRPWLLWVVAATGTLVLLAADAQGQKVFTNTWAVRIPGGPAVANSVARKHGFLNLGQIFGDYYHFWHRGVTKRSLSPHRPRHSRLQREPQVQWLEQQVAKRRTKRDVYQEPTDPKFPQQWYLSGVTQRDLNVKAAWAQGYTGHGIVVSILDDGIEKNHPDLAGNYDPGASFDVNDQDPDPQPRYTQMNDNRHGTRCAGEVAAVANNGVCGVGVAYNARIGGVRMLDGEVTDAVEARSLGLNPNHIHIYSASWGPEDDGKTVDGPARLAEEAFFRGVSQGRGGLGSIFVWASGNGGREHDSCNCDGYTNSIYTLSISSATQFGNVPWYSEACSSTLATTYSSGNQNEKQIVTTDLRQKCTESHTGTSASAPLAAGIIALTLEANKNLTWRDMQHLVVQTSKPAHLNANDWATNGVGRKVSHSYGYGLLDAGAMVALAQNWTTVAPQRKCIIDILTEPKDIGKRLEVRKTVTACLGEPNHITRLEHAQARLTLSYNRRGDLAIHLVSPMGTRSTLLAARPHDYSADGFNDWAFMTTHSWDEDPSGEWVLEIENTSEANNYGTLTKFTLVLYGTAPEGLPVPPESSGCKTLTSSQACVVCEEGFSLHQKSCVQHCPPGFAPQVLDTHYSTENDVETIRASVCAPCHASCATCQGPALTDCLSCPSHASLDPVEQTCSRQSQSSRESPPQQQPPRLPPEVEAGQRLRAGHHHHHH
modifications: His6 tag
Regarding B1, the “processing of rpro-vWF on immobilized fusion protein” value with pro-rvWF (Ni2+ column, CHO-rvWF supernatant with 2 mM imidazole passed over, column eluate) is “only completely processed vWF”. For the same molecule, the Activity in the series with rFX (t = 6 hours, supernatants 1:1, 37° C.) amounted to 344 mU/ml. For the same molecule, the “% Functional FX” value in the series with rFX (t = 6 hours, from activity and ELISA antigen) came out at 43%. In addition, the “unspecific proteolytic activity (OD values) in mixture of CHO and CHO-r-furinΔTM-His supernatants” value with rFX (without rFX, % of the proteolytic activity) is “less than 7%”. For the same molecule, the “INTENSITY (AMC peptide substrate test)” value in the series on Boc-Arg-Val-Arg-Arg-AMC (1st washing fraction of Ni2+-NTA column) was 340; in the series on Boc-Arg-Val-Arg-Arg-AMC (2nd washing fraction of Ni2+-NTA column), 280; in the series on Boc-Arg-Val-Arg-Arg-AMC (3rd washing fraction of Ni2+-NTA column) it was 121; in the series with Boc-Arg-Val-Arg-Arg-AMC (eluate from Ni2+-NTA matrix (buffer A containing 200 mM imidazole)), 2820; in the series with Boc-Arg-Val-Arg-Arg-AMC (roller supernatant before binding to the Ni2+-NTA matrix), 2664. Also, the “Intensity of the fluorescent emission at 438 nm” value in the series with Boc-Arg-Val-Arg-Arg-AMC is reported as 2524.

B2: CHO-r-furinΔCys-spacer-His: r-furinΔCys (to amino acid 585) with spacer Ala-Ala-Gly-Gly-Ala-Ala and six histidine residues; SEQ.ID.NO. 21 (protein)
chain: MELRPWLLWVVAATGTLVLLAADAQGQKVFTNTWAVRIPGGPAVANSVARKHGFLNLGQIFGDYYHFWHRGVTKRSLSPHRPRHSRLQREPQVQWLEQQVAKRRTKRDVYQEPTDPKFPQQWYLSGVTQRDLNVKAAWAQGYTGHGIVVSILDDGIEKNHPDLAGNYDPGASFDVNDQDPDPQPRYTQMNDNRHGTRCAGEVAAVANNGVCGVGVAYNARIGGVRMLDGEVTDAVEARSLGLNPNHIHIYSASWGPEDDGKTVDGPARLAEEAFFRGVSQGRGGLGSIFVWASGNGGREHDSCNCDGYTNSIYTLSISSATQFGNVPWYSEACSSTLATTYSSGNQNEKQIVTTDLRQKCTESHTGTSASAPLAAGIIALTLEANKNLTWRDMQHLVVQTSKPAHLNANDWATNGVGRKVSHSYGYGLLDAGAMVALAQNWTTVAPQRKCIIDILTEPKDIGKRLEVRKTVTACLGEPNHITRLEHAQARLTLSYNRRGDLAIHLVSPMGTRSTLLAARPHDYSADGFNDWAFMTTHSWDEDPSGEWVLEIENTSEANNYGTLTKFTLVLYGTAPEGLPVPPESSAAGGAAHHHHHH
modifications: spacer and His6 tag
notes: r-furinΔCys (to amino acid 585) with spacer Ala-Ala-Gly-Gly-Ala-Ala and six histidine residues; 21
In the case of B2, the “processing of rFX” value in the series with single-chain rFX is on record as “demonstrated”.
